Assay results reported in article PMC8092299, “Bifunctional Malic/Malolactic Enzyme Provides a Novel Mechanism for NADPH-Balancing in Bacillus subtilis” (mBio, 2021).

Assays:
MaeB = biological target: T1, MaeB (Escherichia coli, UniProt P76558); test: flow-injection TOF MS, lactate formation (malolactic activity); type: biochemical; details: NAD+, malate, pyruvate and 1 mM NADPH; 10 mM potassium phosphate pH 7.4, 2.5 mM MgCl2, 50 mM KCl, 1 mM NaHCO3, room temperature
T1 construct: His-tagged from ASKA His tag collection library, overexpressed in E. coli, Ni-NTA purified, tag kept
T1 sequence (P76558 1-759): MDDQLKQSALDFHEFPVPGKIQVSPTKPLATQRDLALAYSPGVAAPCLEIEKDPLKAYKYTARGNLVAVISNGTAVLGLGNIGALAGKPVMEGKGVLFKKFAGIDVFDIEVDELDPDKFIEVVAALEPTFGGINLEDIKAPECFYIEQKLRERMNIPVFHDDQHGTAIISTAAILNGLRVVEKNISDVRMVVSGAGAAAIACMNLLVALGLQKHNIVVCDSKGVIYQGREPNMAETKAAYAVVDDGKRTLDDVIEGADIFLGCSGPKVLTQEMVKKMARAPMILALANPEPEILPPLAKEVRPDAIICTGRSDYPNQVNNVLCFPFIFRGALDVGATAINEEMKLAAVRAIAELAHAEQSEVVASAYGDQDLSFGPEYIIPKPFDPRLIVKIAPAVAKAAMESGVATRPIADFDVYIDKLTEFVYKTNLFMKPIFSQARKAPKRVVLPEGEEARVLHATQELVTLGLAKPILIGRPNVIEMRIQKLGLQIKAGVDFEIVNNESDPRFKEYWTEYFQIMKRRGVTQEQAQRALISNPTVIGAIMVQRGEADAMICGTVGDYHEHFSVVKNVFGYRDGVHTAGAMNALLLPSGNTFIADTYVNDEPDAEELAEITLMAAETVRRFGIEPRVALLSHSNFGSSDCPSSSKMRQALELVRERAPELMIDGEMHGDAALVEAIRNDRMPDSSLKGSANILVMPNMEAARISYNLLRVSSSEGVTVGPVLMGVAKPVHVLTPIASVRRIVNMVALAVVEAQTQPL

purified protein [1] = substrate: NC(=O)C1=CN([C@@H]2O[C@H](COP(=O)(O)OP(=O)(O)OC[C@H]3O[C@@H](n4cnc5c(N)ncnc54)[C@H](OP(=O)(O)O)[C@@H]3O)[C@@H](O)[C@H]2O)C=CC1; test: purified protein; type: biochemical, Bacillus subtilis; details: reductive carboxylation, 20 mM pyruvate, 50 mM NaHCO3, 5 mM MgCl2, 50 mM KCl, 100 mM Tris-HCl pH 7.8, 37°C, varied: cofactor
purified protein [2] = substrate: CC(=O)C(=O)O; test: purified protein; type: biochemical, Bacillus subtilis; details: reductive carboxylation, NADH and NADPH both added at 0.2 mM, 50 mM NaHCO3, 5 mM MgCl2, 50 mM KCl, 100 mM Tris-HCl pH 7.8, 37°C

Q: `O=C(O)C[C@H](O)C(=O)O` [malate] was tested. Which “flow-injection TOF MS, lactate formation (malolactic activity)” value (MaeB) did it give?
A: Its value is “we observed lactate production and, thus, malolactic activity by MaeB”.

B1: YtsJ (Bacillus subtilis subsp. subtilis str. 168) (protein)
chain: MSLREEALHLHKVNQGKLESKSKVEVRNAKDLSLAYSPGVAEPCKDIHEDINKVYDYTMKGNMVAVVTDGTAVLGLGNIGPEAALPVMEGKAVLFKSFAGVDAFPIALNTNDVDKIVETVKLLEPTFGGVNLEDIAAPNCFIIEERLKKETNIPVFHDDQHGTAIVTVAGLVNALKLSGKSMSSIKVVANGAGAAGIAIIKLLHHYGVRDIVMCDSKGAIYEGRPNGMNDVKNEVAKFTNQDRKDGSLKDVIVDADVFIGVSVAGALTKEMVQSMAKDPIIFAMANPNPEIMPEDAREAGASVVGTGRSDFPNQVNNVLAFPGIFRGALDVRATHINEEMKIAAVEAIASLVSEDELSADYVIPAPFDKRVAPAVAKAVAKAAMETGVARITVDPEEVAEKTRKLTIIGE
notes: His6-tagged, overexpressed in E. coli (QIAexpress), Ni-NTA purified, tag kept
Q: Which Km (purified protein [1]) does the source give for B1 here?
A: Its Km is 0.8 ± 0.5 mM.

Q: And the Km (purified protein [2])?
A: Its Km is 5.3 ± 1.3 mM.
